# Laboratory results taken from patent US7238668B1, “Inhibition of lymphocyte adherence with CS-1-peptides and fragments thereof” (Fred Hutchinson Cancer Research Center, priority 1989, dated 2007).
# Ends that are not written are not given here.
# B1: rsa-CS-1 (peptide)
# peptide: DELPQLVTLPHPNLHGPEILDVPST
# modifications: also: conjugated to SMCC-derivatized rabbit serum albumin
# notes: also called CS-1-rsa; CS-1 (RSA conjugate)
# B2: 38 kDa tryptic fragment of plasma fibronectin (ligand, human, UniProt P02751-8 1589-1968, looked up)
# chain: TAGPDQTEMTIEGLQPTVEYVVSVYAQNPSGESQPLVQTAVTTIPAPTDLKFTQVTPTSLSAQWTPPNVQLTGYRVRVTPKEKTGPMKEINLAPDSSSVVVSGLMVATKYEVSVYALKDTLTSRPAQGVVTTLENVSPPRRARVTDATETTITISWRTKTETITGFQVDAVPANGQTPIQRTIKPDVRSYTITGLQPGTDYKIYLYTLNDNARSSPVVIDASTAIDAPSNLRFLATTPNSLLVSWQPPRARITGYIIKYEKPGSPPREVVPRPRPGVTEATITGLEPGTEYTIYVIALKNNQKSEPLIGRKKTDELPQLVTLPHPNLHGPEILDVPSTVQKTPFVTHPGYDTGNGIQLPGTSGQQPSVGQQMIFEEHGFR
# notes: domain: Hep II and first 67 residues of IIICS (38 kDa tryptic fragment); also called CTCBD fragment
# B3: 58 kDa tryptic fragment of plasma fibronectin (ligand, human, UniProt P02751-10 1589-2125, looked up)
# chain: TAGPDQTEMTIEGLQPTVEYVVSVYAQNPSGESQPLVQTAVTTIPAPTDLKFTQVTPTSLSAQWTPPNVQLTGYRVRVTPKEKTGPMKEINLAPDSSSVVVSGLMVATKYEVSVYALKDTLTSRPAQGVVTTLENVSPPRRARVTDATETTITISWRTKTETITGFQVDAVPANGQTPIQRTIKPDVRSYTITGLQPGTDYKIYLYTLNDNARSSPVVIDASTAIDAPSNLRFLATTPNSLLVSWQPPRARITGYIIKYEKPGSPPREVVPRPRPGVTEATITGLEPGTEYTIYVIALKNNQKSEPLIGRKKTGQEALSQTTISWAPFQDTSEYIISCHPVGTDEEPLQFRVPGTSTSATLTGLTRGATYNVIVEALKDQQRHKVREEVVTVGNSVNEGLNQPTDDSCFDPYTVSHYAVGDEWERMSESGFKLLCQCLGFGSGHFRCDSSRWCHDNGVNYKIGEKWDRQGENGQMMSCTCLGNGKGEFKCDPHEATCYDDGKTYHVGEQWQKEYLGAICSCTCFGGQRGWRCDNCRR
# notes: domain: Hep II and Fib II (58 kDa tryptic fragment)
# What was measured:
# integrin receptor α4β1 [1] = target: T1, integrin receptor α4β1 (human, UniProt P13612 34-1032; P05556 21-798); assay: cell-based or functional assay
# integrin receptor α4β1 [2] = target: T1, integrin receptor α4β1; assay: adhesion of T lymphocytes to 80 kDa-coated plastic with P4C2; IgG control 8580
# integrin receptor α4β1 [3] = target: T1, integrin receptor α4β1; assay: adhesion of T lymphocytes to 38 kDa-coated plastic with P4C2; IgG control 22680
# integrin receptor α4β1 [4] = target: T1, integrin receptor α4β1; assay: adhesion of T lymphocytes to CS-2 (rabbit IgG conjugate)-coated plastic with P4C2; IgG control […]
# integrin receptor α4β1 [5] = target: T1, integrin receptor α4β1; assay: adhesion of T lymphocytes to CS-1 (rabbit IgG conjugate)-coated plastic with P4C2; IgG control 44339
# integrin receptor α4β1 [6] = target: T1, integrin receptor α4β1; assay: adhesion of 51Cr-PBL to plasma fibronectin-coated plastic with hybridoma supernatant; SP2 control 100%
# integrin receptor α4β1 [7] = target: T1, integrin receptor α4β1; assay: adhesion of 51Cr-HT1080 cells to plasma fibronectin-coated plastic with hybridoma supernatant; SP2 control 100%
# integrin receptor α4β1 [8] = target: T1, integrin receptor α4β1; assay: adhesion of 51Cr-Jurkat cells to plasma fibronectin-coated plastic with hybridoma supernatant; SP2 control 100%
# integrin receptor α4β1 [9] = target: T1, integrin receptor α4β1; assay: adhesion of 51Cr-Molt 4 cells to plasma fibronectin-coated plastic with hybridoma supernatant; SP2 control 100%
# integrin α5β1 [10] = target: T2, integrin α5β1 (human, UniProt P08648 42-1049; P05556 21-798); assay: cell-based or functional assay
# integrin α5β1 [11] = target: T2, integrin α5β1; assay: adhesion of T lymphocytes to 80 kDa-coated plastic with P1D6; IgG control 8580
# integrin α5β1 [12] = target: T2, integrin α5β1; assay: adhesion of T lymphocytes to 38 kDa-coated plastic with P1D6; IgG control 22680
# integrin α5β1 [13] = target: T2, integrin α5β1; assay: adhesion of T lymphocytes to CS-2 (rabbit IgG conjugate)-coated plastic with P1D6; IgG control […]
# integrin α5β1 [14] = target: T2, integrin α5β1; assay: adhesion of T lymphocytes to CS-1 (rabbit IgG conjugate)-coated plastic with P1D6; IgG control 44339
# integrin α5β1 [15] = target: T2, integrin α5β1; assay: adhesion of 51Cr-PBL to plasma fibronectin-coated plastic with hybridoma supernatant; SP2 control 100%
# integrin α5β1 [16] = target: T2, integrin α5β1; assay: adhesion of 51Cr-HT1080 cells to plasma fibronectin-coated plastic with hybridoma supernatant; SP2 control 100%
# integrin α5β1 [17] = target: T2, integrin α5β1; assay: adhesion of 51Cr-Jurkat cells to plasma fibronectin-coated plastic with hybridoma supernatant; SP2 control 100%
# integrin α5β1 [18] = target: T2, integrin α5β1; assay: adhesion of 51Cr-Molt 4 cells to plasma fibronectin-coated plastic with hybridoma supernatant; SP2 control 100%
# Jurkat = assay: Inhibition of Jurkat cell adhesion to plasma fibronectin and its fragments; format: cell-based, human
# Protocol: (§1) Antibodies that would alter cell adhesion to purified plasma fibronectin, tryptic fragments and CS peptides were identified as previously described (Wayner and Carter, 1987). […] The plates were blocked with PBS supplemented with 10 mg/ml heat denatured BSA (HBSA). T lymphocyte or HT1080 cells were labeled with Na2 ^51CrO4 (50 μlCi/ml for 2–4 hr), washed, and 5×10^4 HT1080 or cultured T cells or […] were incubated with hybridoma culture supernatants (1:2 dilution in PBS supplemented with 1 mg/ml heat denatured BSA) or control myeloma cell culture supernatant for 15 minutes at room temperature. The cells were allowed to adhere to the protein-coated surfaces in the presence of the hybridoma supernatants for 15–30 minutes (HT1080) or 2–4 hours (lymphocytes) at 37° C. Non-adherent cells were removed by washing with PBS, and the adherent cells were dissolved in SDS/NaOH and bound ^51Cr-cpm were quantitated in a gamma counter.
# [19] = system: T lymphocytes (Jurkat or Molt 4 cells); assay: T lymphocyte adhesion to plasma fibronectin, tryptic fragments and CS peptides; format: cell-based, human
# Protocol: as §1
# Human plasma fibronectin was a generous gift from Drs. Horowitz and R. Schulman (New York Blood Center, N.Y.). […] Two overlapping peptides spanning the initial 48 residues of the IIICS region of human fibronectin (CS-1 and CS-2) were synthesized and coupled to rabbit IgG as described (Humphries et al., 1986, and Humphries et al., 1987, J. Biol. Chem. 262:6886–6892).
# [20] = system: LAD (B) lymphocyte adhesion to HUVE monolayers; assay: Endothelial cell adhesion assay, LAD cells on HUVE monolayers; format: cell-based, human; conditions: Table XI
# Protocol: (§2) HUVEs were incubated with IL-1 β (1 ng/ml) or in some experiments with TNF α (10 ng/ml) for 6–24 hours. At the end of this incubation the HUVE monolayers were washed and used in the adhesion assay.
# (§3) Human umbilical vein endothelial cells (HUVEs) were cultured in 48 well plates as described (supra). To measure adherence of lymphocytes to HUVE monolayer cultures, lymphocytes were labeled with Na2 ^51CrO4 (50 μCi/ml) for 2–4 hours), washed, and then 10^5 lymphocytes were incubated with HUVE monolayers in the presence or absence of inhibitory antibodies or CS-1 derived peptides. The lymphocytes were allowed to adhere for 30 minutes at 37°. Non-adherent cells were subsequently removed by washing with PBS, and the adherent cells were dissolved in SDS/NaOH. Bound ^51Cr-cpm were quantitated in a gamma counter. In some experiments, endothelial cells were activated prior to the adhesion assay by incubating with IL-1 β (1 ng/ml) or […] (10 ng/ml) for 6–24 hours in defined CS-100 media (Cell Systems, Seattle, Wash.).
# [21] = system: Ramos (B) lymphocyte adhesion to HUVE monolayers; assay: Endothelial cell adhesion assay, Ramos cells on HUVE monolayers; format: cell-based, human; conditions: Table XI
# Protocol: as §2, §3
# [22] = system: Jurkat (T) lymphocyte adhesion to HUVE monolayers; assay: Endothelial cell adhesion assay, Jurkat cells on HUVE monolayers; format: cell-based, human; conditions: Table XI
# Protocol: as §2, §3
# fibroblasts = assay: Inhibition of fibroblast adhesion to plasma fibronectin; format: cell-based
# Protocol: as §1
# K562-1 cells = assay: Inhibition of K562 cell adhesion to plasma fibronectin and fragments; format: cell-based, human
# integrin receptor α4β1 [23] = target: T1, integrin receptor α4β1; assay: adhesion of 51Cr-Jurkat cells to surfaces coated with graded peptide-rsa conjugate; 50% of total input cpm, read from plot
# Protocol: Therefore, peptide-conjugates were prepared using rabbit serum albumin (rsa) as a carrier and the conjugates were tested for their ability to support cell adhesion. […] The adhesion experiments presented in Table XIV were conducted as follows:
# (No adhesion=no measurable adhesion above negative controls.)
# integrin receptor α4β1 [24] = target: T1, integrin receptor α4β1; assay: T lymphocyte adhesion to coated fragments
# integrin receptor α4β1 [25] = target: T1, integrin receptor α4β1; assay: adhesion of Jurkat and Molt 4 cells to coated fragments
# T2 sequence (P08648 42-1049, chain 1 of 2): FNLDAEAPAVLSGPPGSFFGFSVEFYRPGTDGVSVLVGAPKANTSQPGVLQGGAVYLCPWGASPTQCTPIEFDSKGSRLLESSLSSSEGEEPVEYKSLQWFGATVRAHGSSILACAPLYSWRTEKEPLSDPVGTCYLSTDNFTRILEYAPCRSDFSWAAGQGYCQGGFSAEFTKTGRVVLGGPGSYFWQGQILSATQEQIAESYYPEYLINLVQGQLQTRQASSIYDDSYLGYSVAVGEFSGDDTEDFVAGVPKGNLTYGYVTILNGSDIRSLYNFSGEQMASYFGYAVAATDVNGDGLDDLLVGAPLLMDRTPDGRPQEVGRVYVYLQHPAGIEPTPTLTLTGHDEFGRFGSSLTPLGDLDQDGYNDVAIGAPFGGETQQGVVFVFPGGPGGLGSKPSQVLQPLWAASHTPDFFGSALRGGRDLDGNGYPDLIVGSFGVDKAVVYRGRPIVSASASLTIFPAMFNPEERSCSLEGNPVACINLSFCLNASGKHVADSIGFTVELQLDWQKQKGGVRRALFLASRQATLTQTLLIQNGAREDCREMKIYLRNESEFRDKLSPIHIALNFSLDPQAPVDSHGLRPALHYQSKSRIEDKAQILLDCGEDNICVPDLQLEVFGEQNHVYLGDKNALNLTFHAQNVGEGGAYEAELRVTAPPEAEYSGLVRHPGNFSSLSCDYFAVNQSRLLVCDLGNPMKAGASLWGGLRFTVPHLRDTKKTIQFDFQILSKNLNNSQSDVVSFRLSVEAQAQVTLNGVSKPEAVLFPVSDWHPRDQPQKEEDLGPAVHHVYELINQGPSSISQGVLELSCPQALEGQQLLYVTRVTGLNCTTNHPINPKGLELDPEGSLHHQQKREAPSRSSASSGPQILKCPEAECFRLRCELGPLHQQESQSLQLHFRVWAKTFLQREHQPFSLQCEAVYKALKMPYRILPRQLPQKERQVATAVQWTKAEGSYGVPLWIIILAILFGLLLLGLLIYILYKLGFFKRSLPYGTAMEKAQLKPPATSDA
# T2 sequence (P05556 21-798, chain 2 of 2): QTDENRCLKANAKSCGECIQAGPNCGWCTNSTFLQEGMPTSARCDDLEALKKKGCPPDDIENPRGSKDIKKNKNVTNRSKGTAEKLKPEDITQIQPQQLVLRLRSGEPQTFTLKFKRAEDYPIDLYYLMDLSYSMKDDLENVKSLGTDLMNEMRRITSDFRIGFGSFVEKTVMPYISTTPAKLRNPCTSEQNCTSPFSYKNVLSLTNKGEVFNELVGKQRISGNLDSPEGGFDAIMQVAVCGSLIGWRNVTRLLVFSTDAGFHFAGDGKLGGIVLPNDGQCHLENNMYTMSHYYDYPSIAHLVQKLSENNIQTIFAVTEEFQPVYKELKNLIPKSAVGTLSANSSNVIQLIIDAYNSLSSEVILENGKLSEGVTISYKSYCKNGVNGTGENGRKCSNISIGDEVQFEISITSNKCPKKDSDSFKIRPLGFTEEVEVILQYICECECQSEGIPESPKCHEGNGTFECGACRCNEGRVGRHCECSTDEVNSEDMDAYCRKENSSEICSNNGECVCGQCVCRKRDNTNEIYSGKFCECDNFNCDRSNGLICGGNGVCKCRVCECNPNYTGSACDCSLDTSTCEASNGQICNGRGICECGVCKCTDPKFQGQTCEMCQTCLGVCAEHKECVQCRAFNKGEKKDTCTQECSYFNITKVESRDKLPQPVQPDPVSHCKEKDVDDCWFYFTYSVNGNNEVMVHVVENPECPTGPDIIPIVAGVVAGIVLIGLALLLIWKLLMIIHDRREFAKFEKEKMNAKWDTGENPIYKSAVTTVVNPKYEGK
# T1 sequence (P13612 34-1032, form in doubt, chain 1 of 2): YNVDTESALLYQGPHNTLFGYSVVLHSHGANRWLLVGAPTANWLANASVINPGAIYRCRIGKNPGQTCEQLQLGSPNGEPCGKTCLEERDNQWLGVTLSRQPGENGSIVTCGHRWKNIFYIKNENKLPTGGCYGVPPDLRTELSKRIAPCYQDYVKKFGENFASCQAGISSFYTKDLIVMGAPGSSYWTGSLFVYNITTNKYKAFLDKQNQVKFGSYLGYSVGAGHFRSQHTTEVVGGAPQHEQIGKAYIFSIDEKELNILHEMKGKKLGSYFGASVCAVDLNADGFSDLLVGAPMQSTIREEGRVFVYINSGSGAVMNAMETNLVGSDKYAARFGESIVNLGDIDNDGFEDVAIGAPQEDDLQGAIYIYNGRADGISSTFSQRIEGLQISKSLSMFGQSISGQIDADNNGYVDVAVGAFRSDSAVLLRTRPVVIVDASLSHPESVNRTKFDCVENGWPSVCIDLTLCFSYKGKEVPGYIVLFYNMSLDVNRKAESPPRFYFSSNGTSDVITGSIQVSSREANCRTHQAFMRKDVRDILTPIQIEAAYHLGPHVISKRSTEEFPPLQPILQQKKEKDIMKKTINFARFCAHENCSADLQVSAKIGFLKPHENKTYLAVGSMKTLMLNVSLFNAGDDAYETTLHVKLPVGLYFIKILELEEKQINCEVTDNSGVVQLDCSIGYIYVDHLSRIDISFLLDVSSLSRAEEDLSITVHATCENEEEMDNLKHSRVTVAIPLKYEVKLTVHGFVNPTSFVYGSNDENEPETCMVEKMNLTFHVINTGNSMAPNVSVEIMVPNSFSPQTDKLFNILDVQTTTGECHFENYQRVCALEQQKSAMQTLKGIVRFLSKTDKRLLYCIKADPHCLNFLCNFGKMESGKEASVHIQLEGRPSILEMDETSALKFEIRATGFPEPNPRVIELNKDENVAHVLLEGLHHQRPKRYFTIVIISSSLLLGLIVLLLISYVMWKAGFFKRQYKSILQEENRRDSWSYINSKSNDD
# T1 sequence (P05556 21-798, form in doubt, chain 2 of 2): as the sequence (P05556 21-798, chain 2 of 2) above
molecule,measurement,setting,value
monoclonal antibody P4C2,"Adhesion (cpm), Jurkat (T) on HUVE monolayers, +IL-1β; SP2 control 372159",integrin receptor α4β1 [1],137000 cpm
same,"Adhesion (cpm), Jurkat (T) on HUVE monolayers, Basal; SP2 control 83924",integrin receptor α4β1 [1],23100 cpm
same,"Adhesion (cpm), LAD (B) on HUVE monolayers, +IL-1β; SP2 control 104672",integrin receptor α4β1 [1],38100 cpm
same,"Adhesion (cpm), LAD (B) on HUVE monolayers, Basal; SP2 control 19542",integrin receptor α4β1 [1],6460 cpm
same,"Adhesion (cpm), Ramos (B) on HUVE monolayers, +IL-1β; SP2 control 12157",integrin receptor α4β1 [1],3690 cpm
same,"Adhesion (cpm), Ramos (B) on HUVE monolayers, Basal; SP2 control 972",integrin receptor α4β1 [1],456 cpm
same,T lymphocyte adhesion (unit not given),integrin receptor α4β1 [2],7150
same,T lymphocyte adhesion (unit not given),integrin receptor α4β1 [3],114
same,T lymphocyte adhesion (unit not given),integrin receptor α4β1 [4],535
same,T lymphocyte adhesion (unit not given),integrin receptor α4β1 [5],841
same,Fibronectin Adhesion (% Control),integrin receptor α4β1 [6],10 % Control
same,Fibronectin Adhesion (% Control),integrin receptor α4β1 [7],93 % Control
same,Fibronectin Adhesion (% Control),integrin receptor α4β1 [8],12 % Control
same,Fibronectin Adhesion (% Control),integrin receptor α4β1 [9],8 % Control
monoclonal antibody P1D6,"Adhesion (cpm), Jurkat (T) on HUVE monolayers, +IL-1β; SP2 control 372159",integrin α5β1 [10],418000 cpm
same,"Adhesion (cpm), Jurkat (T) on HUVE monolayers, Basal; SP2 control 83924",integrin α5β1 [10],84000 cpm
same,"Adhesion (cpm), LAD (B) on HUVE monolayers, +IL-1β; SP2 control 104672",integrin α5β1 [10],114000 cpm
same,"Adhesion (cpm), LAD (B) on HUVE monolayers, Basal; SP2 control 19542",integrin α5β1 [10],15700 cpm
same,"Adhesion (cpm), Ramos (B) on HUVE monolayers, +IL-1β; SP2 control 12157",integrin α5β1 [10],11200 cpm
same,"Adhesion (cpm), Ramos (B) on HUVE monolayers, Basal; SP2 control 972",integrin α5β1 [10],808 cpm
same,T lymphocyte adhesion (unit not given),integrin α5β1 [11],202
same,T lymphocyte adhesion (unit not given),integrin α5β1 [12],24900
same,T lymphocyte adhesion (unit not given),integrin α5β1 [13],435
same,T lymphocyte adhesion (unit not given),integrin α5β1 [14],42900
same,Fibronectin Adhesion (% Control),integrin α5β1 [15],43 % Control
same,Fibronectin Adhesion (% Control),integrin α5β1 [16],5 % Control
same,Fibronectin Adhesion (% Control),integrin α5β1 [17],22 % Control
same,Fibronectin Adhesion (% Control),integrin α5β1 [18],18 % Control
Arg-Gly-Asp-Ser (RGDS) [reference compound],Inhibition of Jurkat cell adhesion to intact fibronectin,Jurkat; 1 mg/ml,50%
same,Inhibition of Jurkat cell adhesion to the 80 kDa fragment,Jurkat; 1 mg/ml,100%
same,Effect on Jurkat cell adhesion to the 38 kDa fragment,Jurkat; up to 1 mg/ml,unaffected
same,Inhibition of adhesion to plasma fibronectin,[19]; Molt 4 or Jurkat cells,50–70%
same,Adhesion (cpm) +IL-1β,"[20]; IL-1β activated HUVE, no peptide 71408",102076 cpm
same,Adhesion (cpm) Basal,"[20]; basal HUVE, no peptide 44860",70652 cpm
same,Adhesion (cpm) +IL-1β,"[21]; IL-1β activated HUVE, no peptide 12936",28104 cpm
same,Adhesion (cpm) Basal,"[21]; basal HUVE, no peptide 2724",16920 cpm
same,Adhesion (cpm) +IL-1β,"[22]; IL-1β activated HUVE, no peptide 314848",357616 cpm
same,Adhesion (cpm) Basal,"[22]; basal HUVE, no peptide 161092",298688 cpm
same,Inhibition of adhesion to plasma fibronectin,fibroblasts,80–90%
same,Inhibition of adhesion to plasma fibronectin,K562-1 cells,100%
"EILDV (also: conjugated to SMCC-derivatized rabbit serum albumin, also called EILDV-RSA) [rsa-EILDV]",Molar Concentration required for 50% adhesion of Jurkat cells,integrin receptor α4β1 [23],1130 nM
B1,Molar Concentration required for 50% adhesion of Jurkat cells,integrin receptor α4β1 [23],115 nM
B2,"Efficiency in mediating T lymphocyte adhesion, on a molar basis",[19]; compared with the 58 kDa fragment,three times more efficient than the 58 kDa fragment
same,efficiency in mediating T lymphocyte adhesion relative to the 58 kDa fragment (molar basis),integrin receptor α4β1 [24],3 times
"LHGPEILDVPST (also: conjugated to SMCC-derivatized rabbit serum albumin, also called B12-rsa conjugate) [rsa-B12]",Molar Concentration required for 50% adhesion of Jurkat cells,integrin receptor α4β1 [23],492 nM
B3,maximum cell attachment relative to the 38 kDa fragment,integrin receptor α4β1 [25],30%
